{"source": "patent US20200308303A1", "about": "(KATHOLIEKE UNIVERSITEIT LEUVEN, published 2020)", "molecular_target": "ovine ADAMTS13 (sheep (ovine))", "experiment": "cell-based or functional assay"}
{"binder": "monoclonal anti-ADAMTS13 antibody 17C7 (antibody, V domains shown, Biotinylated when used as detector; the site is not stated and the letters cannot carry it.) VH: EVQLVESGGDLVKSGGSLKLSCAASGFIFSNYAMSWVRQTPEKRLEWGATITTGGFYTFYSDSVKGRFTISRDNAKNTLYLQMSSLRSEDTAMYYCARHRYDDYYALDYWGQGTSVTVSS VL: ENVLTQSPAIMSTSPGEKVTMTCNVSSSVSYMRWFQQKSSTSPKLWIYDTSKLASGVPGRFSGSGSGHSYSLTISSMEADDVATYYCFQGNGYPLTFGAGTKLELK", "values": [{"measurement": "half maximal inhibitory concentration (IC50) of ADAMTS13 activity in ovine plasma, FRETS-VWF71 assay", "result": 2.4, "unit": "µg/mL"}]}
